# Source: PMC13065503
# pKd: −log10 of the molar value.
# Target: ArtiMYC (3) (UniProt P01106)
# Assay: EMSA
# Details: EMSA: 20 mM HEPES pH 8.0, 150 mM NaCl, 5% glycerol, 1 mM EDTA, 2 mM MgCl2, 0.5 mg/mL BSA, 1 mM DTT, 0.05% NP-40; 4 nM DNA; 30 min RT then 15 min on ice; 10% …
# Sequence of ArtiMYC (3) (P01106 365-454): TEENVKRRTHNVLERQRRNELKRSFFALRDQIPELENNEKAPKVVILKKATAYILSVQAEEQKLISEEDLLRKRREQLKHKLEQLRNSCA
sequence,measurement,value
ACCCCACCACGTGGTGCCT (double strand) [E-box DNA],pKd,7.62
